For one molecule, OD (450nm, 参考630nm) results are on record in CN111718416A.

This experiment has as its target 硫氧还蛋白(Thioredoxin，Trx). Briefly: indirect ELISA, Trx coated at 3 μg/ml, supernatant of transiently transfected CHO cells diluted 1000-fold, goat anti-mouse HRP. Background: ELISA stands for enzyme-linked immunosorbent assay.

Some results are limits rather than exact numbers.

Sequence of 硫氧还蛋白(Thioredoxin，Trx) (P0AA25 2-109): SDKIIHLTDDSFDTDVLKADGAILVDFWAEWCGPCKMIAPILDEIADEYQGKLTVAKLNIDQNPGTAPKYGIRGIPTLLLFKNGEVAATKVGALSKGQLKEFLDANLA

B1: 实施例4的硫氧还蛋白的单克隆抗体(WT) (antibody, mouse IgG1, kappa, V domains shown)
VH: EVKLEESGGGLVQPGGSMKLSCAASGFTFSDGWMDWVRQSPEKGLEWVAELRNDAHNHRTYYAESLKGRFTISRDDSQSNVFLQMNSLRAEDTGIYYCTKRVPEGTGSWFAYWGQGTLVTVSA
VL: DIVMTQSPSSLGMSVGQKVTMSCKSSQSILNSINQKNYLAWYQQRPGQSPKLLVYFGSTRDSGVPDRFIGSGSGTDFTLTISSLQAEDLADYFCQQNYTTPPTFGGGTKLEIKR
As to B1, the OD (450nm, 参考630nm) was above 1 OD.
